Consider one molecule from patent US20140314747A1, “PREDICTING RESPONSE TO EGFR INHIBITORS” (Genentech, Inc., priority 2013, published 2014).

The test concerns mesenchyme free lung explants (lung epithelium in Matrigel). The test is described as follows: mesenchyme-free lung explant culture, growth and branching. The test is classed as cell-based, mouse. The conditions noted are these: both LKB1 wt/wt and LKB1 MG/MG, presence and absence of NMPP1. As for the experimental part:
Pancreas and individual lobes of the lungs were dissected from embryos harvested from timed pregnancy setups. Embryonic explants were cultured on 12 mm Transwell® with 0.4 μm polyester membrane insert (Corning, Tewsbury, Mass.) at the air-liquid interface in DME media with 10% fetal calf serum, glutamine and penicillin-streptomycin. For longer-term cultures (>3 days), media was changed daily.
For mesenchyme-free cultures, lungs were dissected and incubated in Collagenase/Dispase (1 mg/ml for each) for 10-15 minutes at room temperature. Epithelial tissue was removed by mechanical dissection, transferred to the Transwell® plates, and covered with 5-10 μl of 1:1 Matrigel:DME. After Matrigel was solidified, 400 μl media (DME/10% FCS/glutamine/pen-strep+200 ng/ml FGF7 (Life Technologies, Carlsbad, Calif.), FGF1 (Life Technologies), or EGF (Life Technologies)) was added to top and bottom wells. Erlotinib (Tarceva®, 1 μM hydrochloride salt; OSI Pharmaceuticals) or DMSO was added as indicated.
Embryonic explants were fixed in 4% paraformaldehyde, permeabilized in PBS with 2% BSA, 0.1% saponin or 0.1% Triton-X100. After washing, tissues were stained with anti-E-cadherin (Santa Cruz). […]
Homozygous germline mutations in LKB1 in mice are early embryonic lethal. […] During this time, the response of these tissues to growth factors was assessed.

B1: FGF-7: fibroblast growth factor FGF-7 (Life Technologies) (protein, UniProt P21781 32-194, looked up)
Fibroblast growth factor 7: CNDMTPEQMATNVNCSSPERHTRSYDYMEGGDIRVRRLFCRTQWYLRIDKRGKVKGTQEMKNNYNIMEIRTVAVGIVAIKGVESEFYLAMNKEGKLYAKKECNEDCNFKELILENHYNTYASAKWTHNGGEMFVALNQKGIPVRGKKTKKEQKTAHFLPMAIT
B1: the “growth of mesenchyme free lung cultures” value is reported as “robust growth”.
